Reference: patent publication US20230227545A1 (published 2023)

How the values were obtained:
[1] = biological target: T1, pig IL-1β (pig, UniProt P26889 115-267); test: SPR, Biacore 8K, mAb captured on anti-human Fc chip, soluble IL-1β as analyte
T1 construct: also called pig IL-β
T1 sequence (looked up): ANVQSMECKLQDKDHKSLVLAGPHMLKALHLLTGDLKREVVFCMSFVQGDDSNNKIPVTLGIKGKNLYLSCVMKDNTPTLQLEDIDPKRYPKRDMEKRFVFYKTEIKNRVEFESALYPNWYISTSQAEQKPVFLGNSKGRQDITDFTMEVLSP
Description: (§1) Affinity assessment of 05H21A, 15N14A, and 08F17A against human IL-1β was performed by Surface Plasmon Resonance (SPR) using a Biacore 8k. Cross-reactivity of the same antibody panel was also assessed against cyno, mouse, rat and pig IL-1β.
(§2) SPR is a label-free technique to study the strength of an interaction between two binding partners by measuring the change in mass upon complex formation and dissociation. Briefly, antibodies were immobilized on a sensor chip which was coupled with goat anti-human Fc (GAH-Fc C1 sensor chip). Soluble IL-1β was flowed over the immobilized antibody and association/dissociation responses were monitored. Kinetic information (on-rate and off-rate constants) were extracted by fitting sensorgrams to the 1:1 Langmuir model. Binding affinity (KD) were reported as the ratio of rate constants (koff/kₒₙ).

[2] = biological target: T2, human IL-1β (human, UniProt P01584 117-269); test: cell-based or functional assay
[3] = biological target: T2, human IL-1β; test: cell-based or functional assay; remark: listed apart in the source
[4] = biological target: T2, human IL-1β; test: SPR, Biacore 8K, mAb captured on goat anti-human Fc C1 chip, soluble IL-1β as analyte, 1:1 Langmuir fit
Description: as §1, §2

[5] = biological target: T3, cynomolgus IL-1β (cynomolgus macaque, UniProt P79182 117-268); test: as above
T3 construct: also called cyno IL-1β; Cyno IL-β
T3 sequence (looked up): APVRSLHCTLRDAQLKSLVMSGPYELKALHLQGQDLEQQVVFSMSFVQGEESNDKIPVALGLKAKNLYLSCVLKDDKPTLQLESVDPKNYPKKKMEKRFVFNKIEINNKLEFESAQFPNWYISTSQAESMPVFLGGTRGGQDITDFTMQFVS
Description: as §1, §2

[6] = biological target: T3, cynomolgus IL-1β; test: cell-based or functional assay
[7] = biological target: T2, human IL-1β; test: cell-based or functional assay; remark: listed apart in the source

B1: 05H21A (antibody, human IgG1, lambda, V domains shown)
VH: QVTLRESGPALVKPTQTLTLTCTFSGFSLSTSGMWVSWIRQPPGKALEWLALIDWGDDKYYTTSLKTRLTISKDTSKNQVVLTMTNMDPVDTATYYCARMREGSRAFDIWGQGTVVTVSS
VL: QSVLTQPPSVSEAPRQRVTISCSGSSSNIGDNAVNWYQQLPGKAPKLLIYNDDLLSSGVSDRFSGSKSGTSASLAISGLQSEDEADYYCAAWDDSLNGPVFGGGTKLTVLG
notes: Lambda light chain; also called 05H21A (anti-IL-1β) mAb [IgG1: YTE]
[1]
  binding result: no binding
[2]
  IC30, inhibition of rhIL-1β-induced cytokine release, NHDF donor 29114: 0.039 nM
  IC30, inhibition of rhIL-1β-induced cytokine release, NHLF donor 34325: 0.071 nM
  IC30, inhibition of rhIL-1β-induced cytokine release, NHLF donor 35234: 0.042 nM
  IC50, inhibition of rhIL-1β-induced cytokine release, NHDF donor 29114: 0.078 nM
  IC50, inhibition of rhIL-1β-induced cytokine release, NHLF donor 34325: 0.167 nM
  IC50, inhibition of rhIL-1β-induced cytokine release, NHLF donor 35234: 0.098 nM
  IC90, inhibition of rhIL-1β-induced cytokine release, NHDF donor 29114: 0.49 nM
  IC90, inhibition of rhIL-1β-induced cytokine release, NHLF donor 34325: 1.51 nM
  IC90, inhibition of rhIL-1β-induced cytokine release, NHLF donor 35234: 0.89 nM
[3]
  IC30, inhibition of rhIL-1β-induced CXCL5 release, human whole blood (5 donors): 0.4 nM
  IC30, inhibition of rhIL-1β-induced G-CSF release, human whole blood (5 donors): 0.364 nM
  IC30, inhibition of rhIL-1β-induced IL-6 release, human whole blood (5 donors): 0.393 nM
  IC50, inhibition of rhIL-1β-induced CXCL5 release, human whole blood (5 donors): 0.622 nM
  IC50, inhibition of rhIL-1β-induced G-CSF release, human whole blood (5 donors): 0.632 nM
  IC50, inhibition of rhIL-1β-induced IL-6 release, human whole blood (5 donors): 0.631 nM
  IC90, inhibition of rhIL-1β-induced CXCL5 release, human whole blood (5 donors): 1.95 nM
  IC90, inhibition of rhIL-1β-induced G-CSF release, human whole blood (5 donors): 2.64 nM
  IC90, inhibition of rhIL-1β-induced IL-6 release, human whole blood (5 donors): 2.16 nM
[4]
  Kd: 0.0197 nM
  koff: 0.000422 s⁻¹
  kon: 2.14e+07 M⁻¹ s⁻¹
[5]
  Kd: 0.022 nM
  koff: 0.000348 s⁻¹
  kon: 1.58e+07 M⁻¹ s⁻¹
[6]
  IC30, inhibition of G-CSF release, cynomolgus lung fibroblasts (CLF), 15 pM rcynoIL-1β: 0.195 nM
  IC30, inhibition of IL-6 release, cynomolgus dermal fibroblasts (CDF), 5 pM rcynoIL-1β: 89 pM
  IC30, inhibition of IL-6 release, cynomolgus lung fibroblasts (CLF), 15 pM rcynoIL-1β: 0.214 nM
  IC50, inhibition of G-CSF release, cynomolgus dermal fibroblasts (CDF), 5 pM rcynoIL-1β: 59 pM
  IC50, inhibition of G-CSF release, cynomolgus lung fibroblasts (CLF), 15 pM rcynoIL-1β: 0.27 nM
  IC50, inhibition of IL-6 release, cynomolgus dermal fibroblasts (CDF), 5 pM rcynoIL-1β: 0.175 nM
  IC50, inhibition of IL-6 release, cynomolgus lung fibroblasts (CLF), 15 pM rcynoIL-1β: 0.306 nM
  IC90, inhibition of G-CSF release, cynomolgus lung fibroblasts (CLF), 15 pM rcynoIL-1β: 0.63 nM
  IC90, inhibition of IL-6 release, cynomolgus dermal fibroblasts (CDF), 5 pM rcynoIL-1β: 0.997 nM
  IC90, inhibition of IL-6 release, cynomolgus lung fibroblasts (CLF), 15 pM rcynoIL-1β: 0.779 nM
[7]
  IC30, inhibition of IL-6 release, human PBMCs (n=5 donors), 10 pM rhIL-1β: 43 pM
  IC30, inhibition of IL-6 release, human PBMCs (n=5 donors), 30 pM rhIL-1β: 0.104 nM
  IC50, inhibition of IL-6 release, human PBMCs (n=5 donors), 10 pM rhIL-1β: 70 pM
  IC50, inhibition of IL-6 release, human PBMCs (n=5 donors), 30 pM rhIL-1β: 0.164 nM
  IC90, inhibition of IL-6 release, human PBMCs (n=5 donors), 10 pM rhIL-1β: 0.244 nM
  IC90, inhibition of IL-6 release, human PBMCs (n=5 donors), 30 pM rhIL-1β: 0.533 nM
